Experiment: yeast display, Sf9 membrane polyspecificity reagent, FACS + sequencing; frameworks hold sequencing errors
Method in brief: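 Nanobodies from a synthetic yeast display library (Saccharomyces cerevisiae BJ5465), induced 36–48 hours with galactose, were stained 1 hour at 4 °C with 10% biotinylated, detergent-solubilized Sf9 membrane reagent, enriched on streptavidin microbeads, then FACS-sorted. Anti-HA (expression) and streptavidin (reagent binding) fluorescence set low and high (top ~1%) gates. Polyreactivity labels come from the gate of origin. Genes were colony-PCR amplified, MiSeq 2 × 250 sequenced and filtered by CDR length.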

Row | Sequence | polyreactivity (PSR sort gate)
1 | QVQLVESGGGLVQAGGSLRLSCAASGNTFWYYAMGWYRQAPGKERELVAAISWDGGITYYADSVKGRFTISRDNAKNTVYLQMNSLKPEDTAVYYCAAETNPKYRYTLDKYEYWGQGTQVTVSS | high polyreactivity
2 | QDQLVESGGGLDQAGGSLRLSCAASGSTFSPYAMGWYRQAPGKERELVAGITSSGGDSYYADSVKGRFTISRDNAKNTVYLQMKSLKPEDTAVYYCAADWWVLGQLCFDYWGQGTQVNVSS | low polyreactivity
3 | QVQLVESGGGLVQAGGSLRLSCAASGFIFGVYAMGWYRKATGKERELVAAITTRAGTNYADSVKGRFTISRDNAKNTVYLQMNSLKPEDPAVYYCNAVGWYLLPYDYWGQGTQVTVSS | low polyreactivity
4 | QVQLVDSGGGLVQAGGSLRLSCAASGSTFLYHAMGWYRQAPGKERELLAAINSGTSTTYADSVKGRFTISRDNAKNRVYLQMNSLNPEDTAVYYCAADYYYVNYYGYYTLFDFDYWGQGTQVTVSS | low polyreactivity
5 | QVQLVESGGGLVQAGGSLRLSCAASGRIIYTYEMGWYRQAPGKERELVAAISGSGGSTYYADSVKGRFTISRDNSKTTLYLQMNRLKPEDTGVYYCNGAYYGYENLYKRGYWGQGSQVTVSS | high polyreactivity
6 | QVQLVESGGGLVQAGGSLRLSCAASGSTLNYYAMGWYRQAPGKERELVAAITWSGGSTSYADSVKGRFTISRDNAKNTVYLPMNSLKRDDTAVYYCATDFPTVQLYETDWLSSDMGYWGQGTQVNVSS | low polyreactivity
7 | QVQLVESGGGLVQAGGSLRLSCAASGRIFTYYAMGWYRQAPGKERELVASISKSSGSTYYADSVKGRFTISRDNAKNTVYLQMNSLKPEDTAVYYCATDPYVRRSPSWYDYWGQGTQVTVSS | low polyreactivity
8 | QVQVVESGGGLVQAGGSLRLSCAASGFIFPYYAMGWYRQAPGKEWELVAAISWSGSNTYYADSVKGRFTISRDNAKNTDYLQMNSLKPEATAVYYCAARYSVYYFVQRNGRYDDWGQGTQVTVSS | high polyreactivity
9 | QVQLVESGGGLVQAGGSLRLSCAASPNIFHTYGMGWYRQAPWKERELVAAITSDGGTYYADSVKGRFTISRDNAKNTVYLQMNSLNPEDSAVYYCAAYTYYYAIHAYWGQGSQVTVSS | low polyreactivity
10 | QVELVESGGGVVQAGGSLRLSCAASGYIFRAYAMGWYRQAPGKERELVAAISSRGGSKYYADSVKGRFTSSRDNAKNTVYLQMNSLIPEDTAVYYCAAAYRKPYIGYGYWGQGTQGTVSS | high polyreactivity
11 | QVQRVESGGGLVQAGGSLRLSCAASGGIFAVNVMGWYRPAPGKERELVAAITSTGSTYYADSVKGRFTISRDNAKNTVYLQMNSLKPEDTAVYYCAADYVYYDSYDDTVFGYEYWGQGTQVTVSS | high polyreactivity
12 | QVQLLESGGGIVQEGGSLRLSCAASGRIFSPYAMGWYRQAPGKERELVAAITWSGVSTYYADSVKGRFTLSRDNAKNSVYFQMNSLKPEDTAVYYSAVDPRGHEGVRYNYWVQGTQVTVSS | low polyreactivity
13 | QVQLVESGGGLVQAGGSLRLSCAASGSIFQRTAMGWYRQAPGNERELVASINSGGSTNYADSVKGRFTISRDNAKNTVYLQMNSLKPEDTAVYYCAAVRPWWRNKPQWPRYDYWGLGTQVTVSS | low polyreactivity
14 | QVQLVESGGGLVQAGGSLRLSCAAYGRIFGGYAMGWYRQAPGKERELVAAISRRGGSTYYADSVKGRFTISRDNAKNTVYLQMNSLKPEDTAVYYCNAVLSVQARLTRVDYDYWGQGTEVTVSS | high polyreactivity
15 | QVQLVESGGGLVQAGGSLRLSCAASGRIFQFNVMGWYRQAPGKERELVAAISRGGGITDYADSVKGRFTISRDNAKNTVYLQMNSLKPEDTAVYYCAAVLPARGYYWGQGTQVTVSS | high polyreactivity
16 | QVQLVESGGSLVKAGGSLRLSCAASGRIFGSNTIGWYRPEPGKERELVAAITSRGGSTYYADSVKGRFTISRDNAKNTVYLQMNSLKPEDTSVYYCAAKTVLFIFGYWGQGTQVSVSS | high polyreactivity

Row | Sequence | polyreactivity (PSR sort gate)
17 | QVQLVESGGGLVQAGGSLRLSCAASGRSFPAYAMGWYRQAPGKERELVAAISQSGGSTYYADSVKGRFTISRDNAKNTVYLQMNSLKPEDTAVYYCAAGWYVSYYWYDYWGQGTQVTVSS | high polyreactivity
18 | QVQLVESGGGLVQAGGSLRLSCAASGSIFRYYTMGWYRQAPGKERELVASISRGGNTYYADSVKGRFTISRDNAKNTVYLQMNSLKPEDTAVYYCNVRLSYSYISQSDWNFDYWGQGTQVTVSS | low polyreactivity
19 | QVQLVESGGGLVQAGGSLRLSCAASGSIFPDYAMGWYRQAPGKERELVAAITWRDDSTYYADSVKGRFTISRDNAKNTVYLQMNSLKPEDTAVYYCNASALDPLYAKDDYWGQGTQVTVSS | low polyreactivity
20 | QVQLVESGGGLVQAGGSLRLSCAASGRIFDGNAMGWYRQAPGKERELVATITRGGRTNYADSVKGRFTISRDNAKNTVYLQMNSLKPEDTAVYYCAAEYTYYTYNLNYWGQGTQVTVSS | low polyreactivity
21 | QVQLVESGGGLVQAGGSLRLSCAASGFTFYVYAIGWYRKAPRKEREFVAAISKSGGRTYYADSVKGRFTISRDTAKNTVYLQMNSLKPEDTAVYYCGRYNRYQIIYPRFDYWGHGTQVTVSS | high polyreactivity
22 | QVQLGESRGGLVQAGGSLRLSCAASGIIFTFNAMVWYSQAPGKERELVAGISQGGSSTNYADSVKGRFTISRDNAKNTVDLQRNSLKREVTAVYYCAAYVDIVGDYWVVGYYYWGQGTQVTVSS | low polyreactivity
23 | QVQLVESGGGLVQAGGSLRLSCAASGGTQRYYAMGWYRQAPGKEREFVASISRSGGSTYYADSVKGRFTISRDNAKNTVYLQMNSLKPEDTAVYYCAAYWSPGYTTRRGYWGQGTQVTVSS | high polyreactivity
24 | QVQLVESGVVLVQAGGSLPLSCSASGRIFIHYAMGWYRQAPGKERELVAAISASGGTTNYADSVKGRFTISRDNAKNTVYLQMNSLKPEDTAVYYCAAEGYRSWRGLRSRYYYWGEGTQVTVSS | high polyreactivity
25 | QVQHVESGGGLVQAGGSLRLSCAASGTIFEGKGMGWYRQAPGKERELVAAITFRSGSTYYADSVKGRFTISRDNAKNTVYLQMNSLKPEDTAVYYCAADEYYQVSAYDYWGQGTQVTVSS | low polyreactivity
26 | QVQLVESGGGLVQAGGSLRLSCAASGSIFSPYAMGWYRQAPGKEREFVAAITWSDGGTYADSVKGRFTISRDNAKNTVYLQMNSRKPEDTAVYYCAAKLASYLVTGMDYWGQGTQVTVSS | low polyreactivity
27 | QVQLVESGGGLVQAGGSLRLSCAASGSIFGWYAMGWYRQAPGKVRELVATITDRGGRTYYADSVKGRFTISRDNAKNTVYLQMNSLTPEDTAVYDCAADAWPFEAESDSWGQGTQVTVSS | low polyreactivity
28 | QVQLVESGGGLVQAGGSLRLSCAASGFTFAQYTMGWYRPAPGKERELVAAIRVGGGSTYYADSVKGRFTISRDNAKNTVYLQMNSLKPEDTAVYYCAKRTYSRKFRGAYNYWGQGTQVTVSS | high polyreactivity
29 | QVQLVESGGGLVQAGGSLRLSCAASGSIFTPYAMGRYRQAPGKERELVAAISRSGGRTYYADSVKGRFTISRDNAKNTVYLQMNSLKPEDTAVYYCNAGAGQRVSGHSFEYWGQGTQVTVSS | high polyreactivity
30 | QVQLVESGGGLVQAGGSLRLSCAASGRIFVKYAMGWYRQAPGKERELVAAITNSGGRTYYAASVKGRFTISRDNAKNTVYLQMNSLKPEDTAVYYCAALYHASTRQMDYWGQGTQVTVSS | high polyreactivity
31 | QVQLVESGGGLVQAGGSLRLSCAASGLTFGRYTMGWYRQAPGKERELVAAISYSGGSTYYADSVKGRFTISRDNAKNTVYLQMNSLKPEDTAVYYCAKRWTGLGGYYYWGQGTQVTVSS | high polyreactivity

— the nanobody polyreactivity screen of Harvey et al. (2022)
